Test results published in publication PMC5225067.

Biological target: AD-Myo5 [S. cerevisiae]
Test: yeast two-hybrid (β-galactosidase activity)
Conditions: read off a plot

Substance: human BD-UNC45-SM, wild type mutant S251E [human] / AD-Myo5 [S. cerevisiae] chain 1 S251E
- response (25 °C (no heat shock)): 0.29 mU
- response (39 °C (heat shock)): 0.52 mU

Substance: She4-BD, wild type mutant S18A [S. cerevisiae] / AD-Myo5 [S. cerevisiae] chain 1 S18A
- response (25 °C (no heat shock)): 0.34 mU
- response (39 °C (heat shock)): 0.45 mU

Substance: She4-BD, wild type mutant S18E [S. cerevisiae] / AD-Myo5 [S. cerevisiae] chain 1 S18E
- response (25 °C (no heat shock)): 0.075 mU
- response (39 °C (heat shock)): 0.17 mU

Substance: human BD-UNC45-SM, wild type mutant S251A [human] / AD-Myo5 [S. cerevisiae] chain 1 S251A
- response (25 °C (no heat shock)): 0.79 mU
- response (39 °C (heat shock)): 1 mU
